Measurements reported in article doi:10.1101/2025.11.13.687974.
Values belong to the molecule of their own block, whether it stands above or below them.

What was measured:
[1] = target: MBP-tagged chromoshadow domain (CSD) of wild-type HPL-2 (Caenorhabditis elegans); assay: mass photometry
[2] = target: human HP1β chromoshadow domain (CSD) (human); assay: mass photometry
[3] = target: biotinylated 12-mer H3K9me3 chromatin arrays (histone octamers with H3K9me3 on 12x200-601 DNA) (Xenopus laevis | not stated); assay: pull-down

percent dimers [1]: 67% | percent monomers [1]: 32% | stoichiometry N [1]: 2
Molecule: MBP-tagged chromoshadow domain (CSD) of wild-type HPL-2 (domain or fragment)

percent dimers [2]: 97% | stoichiometry N [2]: 2
Molecule: human HP1β chromoshadow domain (CSD) (domain or fragment)

fold enrichment on H3K9me3 arrays relative to unmodified arrays [3]: 3 fold
B1: C. elegans HPL-2, wild-type recombinant protein (natural protein)
chain: MSSKSTKRAKIEDPKDNVFMVEKVLDKRTGKAGRDEFLIQWQGFPESDSSWEPRENLQCVEMLDEFEREFSKREKPIRKRHSQKPEPSEDQADPEEDKDEKKETNQNDKFSLEGKQLKCIVGLTKGPGELHFLCKFSDDTARLLPAKEVNSRYPSQVIRYYESKLTIQDPKADEL
